From article PMC9022034

Target: T1, CBM3a (family IIIa carbohydrate binding module) of the cellulosomal scaffolding protein CipC (Clostridium cellulolyticum (Ruminiclostridium cellulolyticum) H10)
T1 chain: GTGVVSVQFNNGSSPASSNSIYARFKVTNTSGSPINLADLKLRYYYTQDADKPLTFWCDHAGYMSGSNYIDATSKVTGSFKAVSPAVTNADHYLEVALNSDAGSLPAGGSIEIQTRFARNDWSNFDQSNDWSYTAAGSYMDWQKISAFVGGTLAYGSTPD
Assay: ITC
Details: domain or fragment; C-terminal His6 tag omitted. Limits not printed and no X2 feature in the entry: estimated from the CipC module order (CBM3a-X2-Coh1..7-X2-Coh8) and the ~95-aa X2 size (1EHX is the X2-N homologue). Both edges are uncertain by about 10 residues; the segment should contain the NGNT motif. Methods sometimes call this protein X2-N, but Results state X2-C was used in vitro. / C-terminal His6 tag omitted; modification not given

B1: X2-C module of the cellulosomal scaffolding protein CipC (protein)
chain: VGDVTPVNPTITPSTASFDKYVPANVNVTLTPNGNTFKGITGLTSGTDFTVSNNVVTISKSYLSTLAVGSKTLTFDFGVTNNPVLTLTITDSTPVV
- Ka: 80200 M⁻¹
